Measurements reported in the supplement of paper PMC10567573.

B1: ESRRA (parent)
chain: SLPLQDELAFAEDLVLDEEGARAA
B2: HESX1 (parent)
chain: QKKDCVPLMKPHRPWADTCSSSGK

Variants of: B1
Assay: protein stability index of a GFP-peptide fusion (GPS, HEK-293T) (PSI 1-6); higher = more stable
Settings: c terminus: a fixed tail appended
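Further: lentivirally expressed fusions sorted by FACS into six bins by GFP to DsRed ratio, PSI derived from sequencing read proportions per bin multiplied by bin number.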

Protein stability index: each site, then its substitutions
A11: G 5.17, C 5.35, P 5.53, Y 4.66, I 4.73, L 4.97, T 4.23, N 5.7, K 4.98, M 5.4, E 5.54, W 3.02, F 4.89, V 5.07, R 5.65, Q 5.56, D 5.57, H 5.54, S 4.13
A9: M 3.2, S 3.42, K 2.63, H 3.67, D 5.39, F 4.56, P 5.74, W 3.68, Q 3.61, N 3.88, T 2.63, E 4.7, C 4.11, G 4.01, L 3.45, Y 4.19, I 4.8, R 3.38, V 4.88
P3: A 4.97, W 4.32, R 4.46, Q 4.21, D 4.14, N 4.08, E 4.97, H 4.45, C 4.78, L 4.84, I 3.93, G 4.7, Y 4.61, F 4.6, K 5.08, T 4.8, S 5.28, V 4.91, M 4.18
L16: W 3.23, M 3, I 3.88, C 3.63, V 4.15, S 4.91, H 3.6, P 5.75, K 3.24, Y 2.44, N 4.59, F 3.7, G 4.85, Q 3.54, A 3.83, R 3.55, E 5.2, T 4.72, D 5.66
D6: Q 2.91, S 3.25, N 2.92, R 2.65, I 2.26, G 3.37, F 2.73, T 2.89, E 2.67, C 2.42, W 2.78, K 2.81, P 4.04, Y 2.02, H 2.45, L 3.26, A 3.27, V 2.5, M 3.77
E12: W 5.05, H 4.72, L 4.42, R 4.36, D 5.35, I 3.8, G 4.91, S 5.26, Q 4.71, V 4.82, T 5.41, M 4.88, N 5.53, Y 4.2, C 5.04, A 5, F 4.52, P 5.03, K 5.28
L8: Q 5.29, S 5.63, C 5.51, H 5.5, E 5.55, W 5.29, M 2.99, P 5.3, N 5.54, T 4.84, Y 4.77, R 5.66, D 5.43, K 5.45, V 5.84, I 5.34, A 5.07, F 5.13, G 5.2
E7: C 3.5, A 2.41, M 3.26, W 4.16, N 4.51, R 4.96, S 3.29, I 2.46, L 3.66, Q 3.56, Y 3.88, H 3.94, P 5.58, G 5.2, F 3.92, K 4.84, T 4.4, V 2.03, D 3.63
V15: M 4.79, P 5.37, I 3.18, N 5.68, D 4.89, E 5.82, K 5.57, R 5.42, C 4.28, L 3.92, T 5.28, W 4.85, H 5.45, Q 5.49, F 5.55, S 5.76, A 4.6, G 5.55, Y 5.25
F10: Q 3.98, D 4.18, R 3.57, K 2.83, V 3.69, T 3.77, E 4.35, H 3.44, N 4.03, P 5.69, Y 3.54, I 3.63, W 2.96, G 4.26, S 3.04, C 3.36, L 2.5, M 2.52, A 4.18
L14: W 4.92, A 4.45, T 5.13, K 4.89, N 5.38, S 4.7, E 4.62, D 5.5, H 5.42, M 3.29, R 4.2, Q 3.5, C 3.46, I 4.3, V 4.41, Y 5.32, P 5.8, F 5.22, G 5.57
D17: Q 3.31, H 3.47, S 2.69, T 3.57, P 4.71, I 2.45, N 2.86, R 3.13, M 2.03, K 2.46, F 2.93, G 2.15, A 2.89, C 2.78, E 3.7, L 2.71
S1: F 2.48, G 2.81, Y 2.78, K 3.09, A 3.94, M 2.66, I 3.03, C 2.93, P 3.54, Q 3.09, L 2.26, D 3.07, N 2.81, V 2.89, E 2.94, T 3.01, R 3.28, H 2.89, W 2.73
D13: K 3.81, I 1.96, C 2.31, N 2.79, V 1.85, H 2.98, E 2.92, W 3.31, R 3.68, Y 2.64, S 3.37, A 3.48, F 3.31, T 3.71, G 2.44, P 5.46, Q 3.68, L 2.68, M 3.83
Q5: C 3.7, M 2.48, W 2.29, N 3.77, V 3.64, K 2.79, R 3.37, F 3.85, P 4.94, I 3.37, T 5.34, E 5.48, H 3.66, L 3.02, S 4.79, D 5.44, G 4.43, Y 2.96, A 3.25
L4: M 3.51, R 5.1, S 5.39, N 5.36, F 4.96, T 5.43, W 5.32, I 4.43, A 5.45, P 5.46, H 5.41, E 5.59, C 5.1, V 5.02, Q 5.64, D 4.97, G 5.68, K 5.08, Y 5.26
L2: Y 3.22, T 3.52, N 3.86, E 5.29, W 2.69, S 4.21, Q 3.95, I 2.78, A 4.07, D 5.55, K 4.4, H 2.78, P 4.27, R 2.55, V 3.26, G 4.81, C 2.32, M 3.48, F 3.06

Variants of: B2
Assay: as above
Settings: c terminus: a fixed tail appended

Protein stability index, by site and new letter:
K24: T 2.85, W 1.98, S 2.23, V 2.55, I 2.51, Y 1.98, M 2.05, P 3.18, F 2.56, G 3.62, H 2.46, L 1.78, N 2.97, Q 3.57
